Substitutions are numbered along the chain they refer to. Names may count otherwise. One block for each binder: values may come before it.
Columns and labels:
[1] = target: T1, human FcγRIIb extracellular domain, His-tagged (human, UniProt P31994 43-217); test: binding amount of this antibody divided by that of 04H1637-G1m/04L1610-lam1; SPR pH 7.4
T1 construct: extracellular domain; also called hFcγR IIb
T1 sequence (looked up): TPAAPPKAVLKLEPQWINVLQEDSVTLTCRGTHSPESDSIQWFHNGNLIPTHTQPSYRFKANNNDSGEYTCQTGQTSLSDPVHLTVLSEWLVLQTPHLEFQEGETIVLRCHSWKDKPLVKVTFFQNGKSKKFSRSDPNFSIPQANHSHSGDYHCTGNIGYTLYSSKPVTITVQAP
Protocol: (§1) The interaction between the generated antibodies and human FcγRs was analyzed by the following method using Biacore T200. 50 mM Na-Phosphate, 150 mM NaCl, 0.05% Tween20 (pH 7.4) was used as the running buffer, and the assay was performed at 25° C. For the sensor chips, Series S SA (GE Healthcare) chips onto which CaptureSelect Human Fab-lambda Kinetics Biotin Conjugate (Thermo Fisher Scientific) was immobilized were used. The antibodies of interest were captured onto these chips and each FcγR diluted in the running buffer was allowed to interact with them. Chips were regenerated with 10 mM Glycine-HCl (pH 1.5) and 25 mM NaOH, and assay was performed by repeatedly capturing antibodies. The dissociation constants KD (mol/L) for FcγRs of each antibody were calculated using Biacore T200 Evaluation Software 2.0, using the 1:1 Langmuir binding model for FcγRIa and FcγRIIIa and the steady state affinity model for FcγRIIa. For FcγRIIb, the binding amount of FcγRIIb per unit amount of antibody was calculated by correcting the binding amount of FcγRIIb obtained from the sensorgram obtained by the measurement with the amount of antibody captured onto the chip surface.
(§2) “Relative value to KD between G1m and hFcRn” and “Relative value to KD between G1m and hFcγRs” are values obtained by dividing the KD value of 04H1637-G1m/04L1610-lam1 for hFcRn and for each FcγR by the KD value of each variant, respectively. “Relative binding amount” indicates the value obtained by dividing the binding amount of each variant to FcγRIIb by the binding amount of 04H1637-G1m/04L1610-lam1. […] It was shown that all of the generated heterodimerized antibodies had enhanced binding to FcγRIIa and FcγRIIIa as compared with 04H1637-G1m/04L1610-lam1 which has the constant region of native human IgG1.

[2] = target: T2, human FcγRIIIa, allotype F158, extracellular domain, His-tagged (human, UniProt P08637 17-208); test: KD of 04H1637-G1m/04L1610-lam1 divided by KD of this antibody; SPR pH 7.4
T2 construct: extracellular domain; also called hFcγR IIIa F
T2 sequence (P08637 17-208): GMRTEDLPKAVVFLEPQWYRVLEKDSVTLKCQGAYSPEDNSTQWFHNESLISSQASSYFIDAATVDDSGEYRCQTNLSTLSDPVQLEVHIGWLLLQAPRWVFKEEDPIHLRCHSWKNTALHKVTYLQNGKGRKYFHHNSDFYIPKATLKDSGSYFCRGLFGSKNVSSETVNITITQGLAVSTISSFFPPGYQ
Protocol: as §1, §2

[3] = target: T3, human FcγRIIa, type H, extracellular domain, His-tagged (human, UniProt P12318 34-217); test: as above
T3 construct: extracellular domain; also called hFcγR IIa H
T3 sequence (looked up): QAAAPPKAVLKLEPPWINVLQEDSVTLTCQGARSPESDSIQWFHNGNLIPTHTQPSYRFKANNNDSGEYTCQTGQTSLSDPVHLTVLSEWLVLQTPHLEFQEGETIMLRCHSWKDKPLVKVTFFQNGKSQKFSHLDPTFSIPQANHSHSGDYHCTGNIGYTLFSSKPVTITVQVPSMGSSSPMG
Protocol: as §1, §2

[4] = target: T4, human FcγRIIIa, allotype V158, extracellular domain, His-tagged (human, UniProt P08637 17-208); test: as above
T4 construct: extracellular domain; also called hFcγR IIIa V
T4 sequence (P08637 17-208 F176V): as the sequence (P08637 17-208) above, with F160V counted along it
Protocol: as §1, §2

[5] = target: T5, human FcγRIa extracellular domain, His-tagged (human, UniProt P12314 16-292); test: as above
T5 construct: also called hFcγR Ia
T5 sequence (P12314 16-292): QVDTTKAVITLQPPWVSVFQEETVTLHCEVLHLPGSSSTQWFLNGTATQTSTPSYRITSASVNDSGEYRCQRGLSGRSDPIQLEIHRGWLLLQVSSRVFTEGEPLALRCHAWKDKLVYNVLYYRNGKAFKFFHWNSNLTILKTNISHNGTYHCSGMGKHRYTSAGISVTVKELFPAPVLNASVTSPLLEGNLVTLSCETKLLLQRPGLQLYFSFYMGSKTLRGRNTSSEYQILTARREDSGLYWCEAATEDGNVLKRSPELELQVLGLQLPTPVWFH
Protocol: as §1, §2

[6] = target: T6, human FcγRIIa, type R, extracellular domain, His-tagged (human, UniProt P12318 34-217); test: as above
T6 construct: extracellular domain; also called hFcγR IIa R
T6 sequence (looked up): T3 sequence (looked up) with H134R
Protocol: as §1, §2

[7] = target: T1, human FcγRIIb extracellular domain, …; test: SPR Biacore T200, 25C, pH 7.4; FcγRIIb at 1000 nM, corrected by captured antibody
Protocol: as §1

human FcRn = target: T7, human FcRn (human, UniProt P55899 24-290; P61769 21-119); test: KD of 04H1637-G1m/04L1610-lam1 divided by KD of this antibody; SPR pH 6.0
T7 construct: Prepared by the method of WO 2010/107110; also called hFcRn
Protocol: The interaction between the generated antibodies and human FcRn was analyzed by the following method using Biacore T200. 50 mM Na-Phosphate, 150 mM NaCl, 0.05% Tween20 (pH 6.0) was used as the running buffer, and the assay was performed at 25° C. For the sensor chip, Series S SA (GE Healthcare) chips onto which CaptureSelect Human Fab-lambda Kinetics Biotin Conjugate (Thermo Fisher Scientific) was immobilized were used. The antibodies of interest were captured onto these chips and FcRn diluted in the running buffer was allowed to interact with them. Chips were regenerated with 10 mM Glycine-HCl (pH 1.5) and 25 mM NaOH, and assay was performed by repeatedly capturing antibodies. The dissociation constant for FcRn of each antibody was calculated using the steady state model, using Biacore T200 Evaluation Software 2.0.
“Relative value to KD between G1m and hFcRn” and “Relative value to KD between G1m and hFcγRs” are values obtained by dividing the KD value of 04H1637-G1m/04L1610-lam1 for hFcRn and for each FcγR by the KD value of each variant, respectively. “Relative binding amount” indicates the value obtained by dividing the binding amount of each variant to FcγRIIb by the binding amount of 04H1637-G1m/04L1610-lam1. […] It was shown that all of the generated heterodimerized antibodies had enhanced binding to FcγRIIa and FcγRIIIa as compared with 04H1637-G1m/04L1610-lam1 which has the constant region of native human IgG1. Furthermore, 04H1637-Kn462/04L1610-lam1//04H1637-H1441/04L1610-lam1, 04H1637-Kn462/04L1610-lam1//04H1637-H1445/04L1610-lam1, and 04H1637-Kn461/04L1610-lam1//04H1637-H1443/04L1610-lam1 were all shown to have enhanced binding to FcγRIIa compared to 04H1637-Kn125/04L1610-lam1//04H1637-H1076/04L1610-lam 1 which has the Fc region variant reported in WO 2013/002362.

B1: 04H1654-KT461/04L1612-lam1//04H1656-HT443/04L1612-lam1 (antibody, human IgG1, lambda)
heavy 1: QVQLVESGGGVVQPGGSLRLSCAASGFTFSSKTMNWVRQAPGKGLEWVSSISTQSHYIYYARSVRGRFTISRDNAKNSLYLQMNSLRAEDTAVYYCARYGKREDMLWVFDYWGQGTLVTVSSASTKGPSVFPLAPSSKSTSGGTAALGCLVKDYFPEPVTVSWNSGALTSGVHTFPAVLQSSGLYSLSSVVTVPSSSLGTQTYICNVNHKPSNTKVDKRVEPKSCDKTHTCPPCPAPEFQWGPMVFLFPPKPKDVLMISRTPEVTCVVVDVSDEEPEVKFNWYVDGVEVHNAKTKPREEQYNATYRVVSVLPVLHQDWLNGKEYKCKVSNDALPAPEEKTISKAKGQPREPQVYTLPPSRKEMTKNQVSLTCLVKGFYPSDIAVEWESNGQPENNYKTTPPVLDSDGSFFLYSKLTVDKSRWQQGNVFSCSVMHEALHNHYTQKSLSLSP
heavy 2: B1 heavy 1 with R62E, K101A, F239L, Q240L, W241A, M244S, D273H, K339E, K361E, K444E
light: QSALTQPPSASGSPGQSVTISCEGPSTGVGDYTYVHWYQQHPGKAPKLMIYFTSKKPSGVPDRFSGSKSGNTASLTVSGLQAEDEADYYCQTYAAPLGPMFGGGTKLTVLGQPKAAPSVTLFPPSSEELQANKATLVCLISDFYPGAVTVAWKADSSPVKAGVETTTPSKQSNNKYAASSYLSLTPEQWKSHRSYSCQVTHEGSTVEKTVAPTECS
notes: Heterodimerized IgG1 (IGHG1*03) Fc variant
Relative binding amount [1]: 3.1 ratio | Relative value to KD between G1m and hFcγRs [2]: 537 ratio | Relative value to KD between G1m and hFcγRs [3]: 7.1 ratio | Relative value to KD between G1m and hFcγRs [4]: 159 ratio | Relative value to KD between G1m and hFcγRs [5]: 1.3 ratio | Relative value to KD between G1m and hFcγRs [6]: 8.2 ratio | Binding amount [7]: 0.025 RU per RU of captured antibody | Relative value to KD between G1m and hFcRn (human FcRn): 0.8 ratio

B3: 04H1654-KT462/04L1612-lam1//04H1656-HT445/04L1612-lam1 (antibody, human IgG1, lambda)
heavy 1: B1 heavy 1 with E337I
heavy 2: QVQLVESGGGVVQPGGSLRLSCAASGFTFSSKTMNWVRQAPGKGLEWVSSISTQSHYIYYAESVRGRFTISRDNAKNSLYLQMNSLRAEDTAVYYCARYGAREDMLWVFDYWGQGTLVTVSSASTKGPSVFPLAPSSKSTSGGTAALGCLVKDYFPEPVTVSWNSGALTSGVHTFPAVLQSSGLYSLSSVVTVPSSSLGTQTYICNVNHKPSNTKVDKRVEPKSCDKTHTCPPCPAPELLAGPSVFLFPPKPKDVLMISRTPEVTCVVVDVSHEEPEVKFNWYVDGVEVHNAKTKPREEQYNATYRVVSVLPVLHQDWLNGKEYKCKVSNDALPKPDEETISKAKGQPREPQVYTLPPSREEMTKNQVSLTCLVKGFYPSDIAVEWESNGQPENNYKTTPPVLDSDGSFFLYSKLTVDKSRWQQGNVFSCSVMHEALHNHYTQESLSLSP
light: B1 light
notes: as for B1
Relative binding amount [1]: 3.4 ratio | Relative value to KD between G1m and hFcγRs [2]: 408 ratio | Relative value to KD between G1m and hFcγRs [3]: 16.1 ratio | Relative value to KD between G1m and hFcγRs [4]: 106 ratio | Relative value to KD between G1m and hFcγRs [5]: 1.2 ratio | Relative value to KD between G1m and hFcγRs [6]: 14.2 ratio | Binding amount [7]: 0.028 RU per RU of captured antibody | Relative value to KD between G1m and hFcRn (human FcRn): 0.8 ratio

B4: 04H1654-KT473/04L1610-lam1//04H1656-HT482/04L1610-lam1 (antibody, IgG1)
heavy 1: B1 heavy 1 with E337I, N439A, Y441T, Q443R, S445E
heavy 2: B3 heavy 2 with N439A, Y441T, Q443R, S445E
light: B1 light with T33N, Y34W
notes: Heterodimerized IgG1 Fc variant with N434A/Y436T/Q438R/S440E; also called SW1610-ART6+ACT1
Relative binding amount [1]: 3.2 ratio | Relative value to KD between G1m and hFcγRs [2]: 363 ratio | Relative value to KD between G1m and hFcγRs [3]: 18 ratio | Relative value to KD between G1m and hFcγRs [4]: 115 ratio | Relative value to KD between G1m and hFcγRs [5]: 1.1 ratio | Relative value to KD between G1m and hFcγRs [6]: 13.9 ratio | Binding amount [7]: 0.026 RU per RU of captured antibody | Relative value to KD between G1m and hFcRn (human FcRn): 2.3 ratio

The remaining lines, values ahead:

Relative binding amount [1]: 2.8 ratio | Relative value to KD between G1m and hFcγRs [2]: 479 ratio | Relative value to KD between G1m and hFcγRs [3]: 6.4 ratio | Relative value to KD between G1m and hFcγRs [4]: 145 ratio | Relative value to KD between G1m and hFcγRs [5]: 1.1 ratio | Relative value to KD between G1m and hFcγRs [6]: 7.6 ratio | Binding amount [7]: 0.022 RU per RU of captured antibody | Relative value to KD between G1m and hFcRn (human FcRn): 2.2 ratio
B2: 04H1654-KT481/04L1612-lam1//04H1656-HT498/04L1612-lam1 (antibody, IgG1)
heavy 1: B1 heavy 1 with N439A, Y441T, Q443R, S445E
heavy 2: B3 heavy 2 with K335A, D337E, N439A, Y441T, Q443R, S445E
light: B1 light
notes: Heterodimerized IgG1 Fc variant with N434A/Y436T/Q438R/S440E

Relative binding amount [1]: 3.2 ratio | Relative value to KD between G1m and hFcγRs [2]: 355 ratio | Relative value to KD between G1m and hFcγRs [3]: 16.2 ratio | Relative value to KD between G1m and hFcγRs [4]: 110 ratio | Relative value to KD between G1m and hFcγRs [5]: 1 ratio | Relative value to KD between G1m and hFcγRs [6]: 13.8 ratio | Binding amount [7]: 0.026 RU per RU of captured antibody | Relative value to KD between G1m and hFcRn (human FcRn): 2.1 ratio
B5: 04H1654-KT473/04L1612-lam1//04H1656-HT482/04L1612-lam1 (antibody, IgG1)
heavy 1: B1 heavy 1 with E337I, N439A, Y441T, Q443R, S445E
heavy 2: B3 heavy 2 with N439A, Y441T, Q443R, S445E
light: B1 light
notes: as for B2

Relative binding amount [1]: 2.7 ratio | Relative value to KD between G1m and hFcγRs [2]: 495 ratio | Relative value to KD between G1m and hFcγRs [3]: 6.5 ratio | Relative value to KD between G1m and hFcγRs [4]: 152 ratio | Relative value to KD between G1m and hFcγRs [5]: 1.5 ratio | Relative value to KD between G1m and hFcγRs [6]: 7.7 ratio | Binding amount [7]: 0.022 RU per RU of captured antibody | Relative value to KD between G1m and hFcRn (human FcRn): 2.3 ratio
B6: 04H1654-KT481/04L1610-lam1//04H1656-HT498/04L1610-lam1 (antibody, IgG1)
heavy 1: B1 heavy 1 with N439A, Y441T, Q443R, S445E
heavy 2: B3 heavy 2 with K335A, D337E, N439A, Y441T, Q443R, S445E
light: B1 light with T33N, Y34W
notes: as for B2

— patent publication US20260092115A1 (Chugai, published 2026)
